± gives the uncertainty stated by the source.

This series in a line: amyloid nucleation score (Sup35N fusion, yeast selection) (log enrichment); library NNK1; higher = more nucleation; inactive = no reads after selection. The method, boiled down:
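The nucleation score is the log enrichment of output over input reads, calculated with DiMSum and centred on the mode score of non-aggregating sequences. Sequences with under 100 input reads were excluded. Reads came from Illumina sequencing of plasmid inserts from psi-negative yeast expressing Sup35N fused to peptides of 20 random codons, induced 24 hours with 100 μM copper sulfate and grown 7 days at 30°C without adenine and uracil.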
HDSLKFVKQSFFCPEVYIPG gave an amyloid nucleation score of -0.596 ± 0.47.

In the case of IYTSLCQRGGMVMHESKYCC, the amyloid nucleation score was 0.624 ± 0.65.

LNWMCTNWAMFFYTQVILQY showed an amyloid nucleation score of -0.488 ± 1.1.

The substance SCIVLYMKGSGISCTNYTYC yielded an amyloid nucleation score of 6.094 ± 0.054.

As to RDAEWTMIIIIARNQMKAFS, the amyloid nucleation score is -0.162 ± 0.4.

Substance NILKNTLAFSVYLISLPLHV registered an amyloid nucleation score of 1.82 ± 0.1.

ACELGFLPKHRHRGLVFVEG yielded an amyloid nucleation score of -0.725 ± 0.8.

In the case of RVPCCGSYKGVFYEFTFSRG, the amyloid nucleation score was determined as 0.957 ± 0.49.

VFTACVCGRVEDISDCVPAL registered an amyloid nucleation score of -0.071 ± 0.76.

LPWLPLKSRYALTAKFTCEP displayed an amyloid nucleation score of 0.261 ± 1.2.

VELSRASNLCQDNIREHMQV came in with an amyloid nucleation score of -0.32 ± 0.31.

In turn, LVNYLICWT had an amyloid nucleation score of -0.078 ± 0.82.

Consider RSFDLRSSTTLERLFFHMCA, for which the amyloid nucleation score is -0.493 ± 0.88.

FEYVIPRVTKIVRSTDRRGS: the amyloid nucleation score is -0.548 ± 1.7.

In the case of AGSGMLSKLVLLSRKSVSCN, the amyloid nucleation score amounted to 1.02 ± 0.74.

In turn, AVCDKVLRSVEWIFPGLNDS displayed an amyloid nucleation score of -0.496 ± 0.51.

ISGFMLQVLTRRYSWMSA gave an amyloid nucleation score of -0.498 ± 0.88.

Substance DCCGFNFYWISPRFHLRECL returned an amyloid nucleation score of 0.831 ± 0.27.

As to DFLDNVFVTSECHVN, the amyloid nucleation score was 0.255 ± 0.6.

Substance PRKACTIGWLGSINLERGEE gave an amyloid nucleation score of -0.681 ± 0.74.

The substance FCSYLFMLATTLHQAWFHF showed an amyloid nucleation score of 1.1 ± 0.72.

On to YVCGGWCVRVVRQVGYVNL, for which the amyloid nucleation score was 0.421 ± 0.55.

Take NNLWCSFS: the amyloid nucleation score was -0.577 ± 0.43.

Take FDIMNDIK: the amyloid nucleation score is 0.658 ± 0.52.

The substance FCLFKFDCSLSWPQVYRYRL gave an amyloid nucleation score of 1.09 ± 0.36.

The substance GSGNVRL gave an amyloid nucleation score of -1.61 ± 2.4.

TEDAQRGD yielded an amyloid nucleation score of -0.302 ± 0.5.

Substance NKGALRLRFYGIFEVECVVE showed an amyloid nucleation score of 1.09 ± 0.4.

LRFVVFASTIGRGIGST had an amyloid nucleation score of -0.892 ± 0.48.

Substance QRVIAGPPNRAGKAYQALSR returned an amyloid nucleation score of 0.107 ± 0.53.

Regarding INGRTGILRRVGN, the amyloid nucleation score was -1.28 ± 0.75.

In turn, SVASGVMFRAYCFWWAARKV yielded an amyloid nucleation score of 0.27 ± 0.47.

The substance GLKGDIWDMGYSFGWRDGDA showed an amyloid nucleation score of 0.297 ± 0.51.

In turn, MYCFLAKDLRVTEKFWRRGS yielded an amyloid nucleation score of -0.448 ± 0.64.

Regarding EPIVLTVCCFSPKDVSQDLN, the amyloid nucleation score came to 0.749 ± 0.56.

As for NQANQSQPCTDSFILRNGVV, the amyloid nucleation score entry was “inactive”.

With WDTPFFCPSRNFRRATGPYP, the amyloid nucleation score is 0.983 ± 0.53.

Consider VVSWDS, for which the amyloid nucleation score was -0.015 ± 0.41.

In turn, EKLTKTYGTRFNKVKLFL showed an amyloid nucleation score of 0.294 ± 0.41.

For SLDLMCGHQPRSCMVLDSRV, the amyloid nucleation score was determined as 0.983 ± 0.97.

The substance MCKYVMRVLHIVAG gave an amyloid nucleation score of 0.699 ± 0.42.

For the substance SANDFKMWGMVDKFGVMVLL, the amyloid nucleation score entry is “inactive”.

For GNWGNGSGTCLCTSSFYCRL, the amyloid nucleation score is 2.78 ± 0.14.

Take RLFHIGGRGVRYYRLDVAMH: the amyloid nucleation score is -0.264 ± 1.2.

For the substance IMKYPETGLAGRLLTGYTLS, the amyloid nucleation score turned out to be 0.633 ± 0.61.

For TWQFCDVRL, the amyloid nucleation score was -0.064 ± 0.39.

For the substance KVWSLKLSFGSLNMPMGYV, the amyloid nucleation score stood at 0.399 ± 0.26.

HSNIRMCKAECSRGELH: the amyloid nucleation score stood at 0.812 ± 0.61.

On to LPFNVL, for which the amyloid nucleation score stood at 3.09 ± 0.2.

In turn, VYRIAMIF returned an amyloid nucleation score of 1.22 ± 0.31.

SGNCQSRFVVNGNHKC gave an amyloid nucleation score of 0.371 ± 0.5.

In turn, CMRHHMSQHCIPGGPRCRGA displayed an amyloid nucleation score of -0.912 ± 0.65.

In the case of TTGSGSRSNWWYGSPNYYLS, the amyloid nucleation score was -0.867 ± 0.53.

As to ILSAMVRE, the amyloid nucleation score is -0.081 ± 0.23.

Take WTLRYRSARLVACMINTDEM: the amyloid nucleation score stood at 1.68 ± 0.46.

Substance WFIAL registered an amyloid nucleation score of -0.068 ± 0.61.

YLRLKKMSVGVWGVIDRCLV registered an amyloid nucleation score of 0.995 ± 0.51.
